Measured values reported in US20260049160A1 (Hoffmann-La Roche, published 2026).
Substitutions are numbered along the chain they refer to. Values belong to the binder of their own block, whether it stands above or below them.

Tests used:
human FAP = target: T1, human FAP (human, UniProt Q12884 26-760); assay: SPR (Biacore), antibody captured via anti-human IgG Fc, 5 ug/ml human FAP injected alone for 180 s
T1 construct: also called hFAP
From the text: Therefore a <Fc> capturing IgG is immobilized on the chip surface and the different DR5TAA CrossMAbs is captured. In the experiment the targets DR5 and FAP were either added individually or simultaneously to the captured CrossMAb.

[1] = target: T2, biotinylated Tim3-ECD-AviHis (human, UniProt Q8TDQ0 22-202, biotinylated (Avi tag)); assay: ELISA, biotinylated Tim3-ECD-AviHis on streptavidin plates
T2 construct: extracellular domain; also called huTIM3; hu Tim3; not shown: Avi and His tags

[2] = target: T3, biotinylated PD1-ECD-AviHis (human, UniProt Q15116 25-170, biotinylated (Avi tag)); assay: ELISA on biotinylated PD1-ECD-AviHis
T3 construct: extracellular domain; also called huPD1; hu PD1; not shown: Avi and His tags

[3] = target: T2, biotinylated Tim3-ECD-AviHis; assay: ELISA on biotinylated Tim3-ECD-AviHis
[4] = target: T3, biotinylated PD1-ECD-AviHis; assay: ELISA, biotinylated PD1-ECD-AviHis on streptavidin plates
Method: After washing (3×90 μl/well with PBST-buffer) 25 μl anti PD1 antibody samples were added in increasing concentrations and incubated 1h at RT. After washing (3×90 μl/well with PBST-buffer) 25 μl/well goat-anti-human H+L-POD (JIR, JIR109-036-098) was added in 1:5000 dilution and incubated at RT for 1 h on a shaker.

human PD1-ECD = target: T4, human PD1-ECD (human, UniProt Q15116 25-170); assay: SPR (Biacore T200), antibody captured via anti-human Fc IgG, human PD1-ECD in solution, 1:1 Langmuir
T4 construct: extracellular domain; Analyte of the Biacore assay; also called hu PD1-ECD
Method: Different samples were injected for 15 seconds with a concentration of 10 nM and consecutively bound to the flow cells 2, 3 and 4. […] Finally the double referenced data was fitted to a 1:1 langmuir interaction model with the Biacore™ T200 Evaluation Software.

human Tim3-ECD [5] = target: T5, human Tim3-ECD (human, UniProt Q8TDQ0 22-202); assay: SPR (Biacore T200), antibody captured via anti-human Fab IgG, human Tim3-ECD in solution, 1:1 Langmuir
T5 construct: extracellular domain; Analyte of the Biacore assay; also called hu Tim3-ECD
Method: (§1) The sample and running buffer was HBS-EP+ (0.01 M HEPES, 0.15 M NaCl, 3 mM EDTA, 0.05% v/v Surfactant P20, pH 7.4). Flow cell temperature was set to 25° C. and sample compartment temperature to 12° C. The system was primed with running buffer.
(§2) Different samples were injected for 30 seconds with a concentration of 10 nM and bound consecutively to the flow cells 2, 3 and 4. […] Finally the double referenced data was fitted to a 1:1 langmuir interaction model with the Biacore™ T200 Evaluation Software.

human Tim3-ECD [6] = target: T5, human Tim3-ECD; assay: SPR (Biacore T200), antibody captured via anti-human Fab IgG, human Tim3-ECD in solution, 1:1 Langmuir; 2 + 2 bispecific format, Tim3-arm
Method: as §1, §2

T1 sequence (Q12884 26-760 limits assumed): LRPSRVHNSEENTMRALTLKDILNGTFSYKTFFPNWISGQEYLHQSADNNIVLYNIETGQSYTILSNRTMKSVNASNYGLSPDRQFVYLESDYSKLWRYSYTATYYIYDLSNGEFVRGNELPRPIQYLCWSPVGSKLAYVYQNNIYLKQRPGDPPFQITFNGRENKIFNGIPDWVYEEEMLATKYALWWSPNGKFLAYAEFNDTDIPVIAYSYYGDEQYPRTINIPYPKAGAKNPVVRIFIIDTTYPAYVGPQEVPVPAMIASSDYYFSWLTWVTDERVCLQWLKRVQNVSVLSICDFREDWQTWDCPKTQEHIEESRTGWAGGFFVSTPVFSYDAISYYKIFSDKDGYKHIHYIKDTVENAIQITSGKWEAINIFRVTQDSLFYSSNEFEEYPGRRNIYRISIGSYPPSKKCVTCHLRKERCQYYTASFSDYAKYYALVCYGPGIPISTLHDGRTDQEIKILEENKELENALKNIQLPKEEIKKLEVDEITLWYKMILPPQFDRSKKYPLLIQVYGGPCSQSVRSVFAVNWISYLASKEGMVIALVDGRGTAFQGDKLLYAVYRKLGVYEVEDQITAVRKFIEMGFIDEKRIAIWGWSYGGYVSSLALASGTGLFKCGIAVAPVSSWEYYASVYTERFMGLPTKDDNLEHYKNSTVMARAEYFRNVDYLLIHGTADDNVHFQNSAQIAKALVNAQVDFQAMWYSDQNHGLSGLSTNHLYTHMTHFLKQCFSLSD

FAP signal [RU max] (human FAP): 41.9 RU
B1: DR5TAA-0077 (bispecific antibody, human IgG1, kappa)
light 1: not shown
heavy: not shown
light 2: EIVLTQSPGTLSLSPGERATLSCRASQSVSRSYLAWYQQKPGQAPRLLIIGASTRATGIPDRFSGSGSGTDFTLTISRLEPEDFAVYYCQQGQVIPPTFGQGTKVEIKRTVAAPSVFIFPPSDEQLKSGTASVVCLLNNFYPREAKVQWKVDNALQSGNSQESVTEQDSKDSTYSLSSTLTLSKADYEKHKVYACEVTHQGLSSPVTKSFNRGEC
notes: Tetravalent 2+2: DR5 core antibody (VH/VL crossover on DR5) with two FAP Fabs fused to the HC C-termini; wild type CH1/CL interface; also called DR5TAA-0077 (control)

FAP signal [RU max] (human FAP): 7.4 RU
B2: DR5TAA-0082 (bispecific antibody, human IgG1, kappa, L234A L235A)
light 1: B1 light 2 with R31S, I50Y, T54S, Q93T, V94T, I95H, P97I, E124R, Q125K
heavy: not shown
light 2: EVQLLESGGGLVQPGGSLRLSCAASGFTFSSHAMSWVRQAPGKGLEWVSAIWASGEQYYADSVKGRFTISRDNSKNTLYLQMNSLRAEDTAVYYCAKGWLGNFDYWGQGTLVTVSSASVAAPSVFIFPPSDEELKSGTASVVCLLNNFYPREAKVQWKVDNALQSGNSQESVTEQDSKDSTYSLSSTLTLSKADYEKHKVYACEVTHQGLSSPVTKSFNRGEC
notes: Tetravalent 2+2, VH/VL crossover on FAP

FAP signal [RU max] (human FAP): 7.2 RU
B3: DR5TAA-0081 (bispecific antibody, human IgG1, kappa, L234A L235A)
light 1: B2 light 2 with E133Q
heavy: not shown
light 2: B1 light 2 with R31S, I50Y, T54S, Q93T, V94T, I95H, P97I
notes: Tetravalent 2+2: DR5 core antibody with two VH/VL-crossed FAP Fabs fused to the HC C-termini; wild type CH1/CL interface; the set of three chains is the same; also called DR5TAA-0081 (control)

FAP signal [RU max] (human FAP): 38.4 RU
B4: DR5TAA-0078 (bispecific antibody)
light 1: EIVLTQSPGTLSLSPGERATLSCRASQSVSSSYLAWYQQKPGQAPRLLIYGASSRATGIPDRFSGSGSGTDFTLTISRLEPEDFAVYYCQQGTTHPITFGQGTKVEIKSSASTKGPSVFPLAPSSKSTSGGTAALGCLVKDYFPEPVTVSWNSGALTSGVHTFPAVLQSSGLYSLSSVVTVPSSSLGTQTYICNVNHKPSNTKVDKKVEPKSCD
heavy: not shown
light 2: B1 light 2
notes: Tetravalent 2+2: DR5 core antibody with CH1-CL crossover on DR5 (instead of VH/VL), two FAP Fabs fused to the HC C-termini; wild type CH1/CL interface; also called DR5TAA-0078 (control)

FAP signal [RU max] (human FAP): 18.5 RU
B5: DR5TAA-0083 (bispecific antibody, human IgG1, kappa, L234A L235A)
light 1: not shown
heavy: not shown
light 2: B1 light 2 with E124R, Q125K
notes: Tetravalent 2+2, VH/VL crossover on DR5

EC50 [1]: 0.15 nM
binding result [2]: no binding
B6: Chimeric TIM3-0018 (antibody, V domains shown)
VH: QVTLKESGPGILQPSQTLSLTCSFSGFSLSTSGMSVGWIRQPSGKGLEWLAHIWLNDDVFFNPALKRRLTISKDTSNNQVFLQIASVVTADTATYYCVRANGYLYALDYWGQGISVTVSS
VL: QIVLTQSPAIMSASPGQKVTITCSASSSVNYTQWYQQKLGSSPKLWIYDAFKLAPGVPARFSGSGTGTSYSLTISSMEAEDAASYFCHQWSSYPWTFGGGTKLEIK
notes: Bivalent IgG; also called TIM3 IgG (bivalent); copies: 2 + 2

binding result [3]: no binding
EC50 [4]: 0.12 nM
B7: Chimeric PD1-0103 (antibody, V domains shown)
VH: EVILVESGGGLVKPGGSLKLSCAASGFSFSSYTMSWVRQTPEKRLDWVATISGGGRDIYYPDSVKGRFTISRDNAKNTLYLEMSSLMSEDTALYYCVLLTGRVYFALDSWGQGTSVTVSS
VL: KIVLTQSPASLPVSLGQRATISCRASESVDTSDNSFIHWYQQRPGQSPKLLIYRSSTLESGVPARFSGSGSRTDFTLTIDPVEADDVATYYCQQNYDVPWTFGGGTKLEIK
notes: Bivalent IgG; also called PD1 IgG (bivalent); copies: 2 + 2

EC50 [4]: 0.09 nM
EC50 [1]: 0.11 nM
Kd (human PD1-ECD): 1.9 nM
Kd (human Tim3-ECD [5]): 0.3 nM
B8: 2 + 2 PD1TIM3_0359: chimeric PD1-0103/Tim3-0018 (bispecific antibody, human IgG1, kappa, L234A L235A)
heavy: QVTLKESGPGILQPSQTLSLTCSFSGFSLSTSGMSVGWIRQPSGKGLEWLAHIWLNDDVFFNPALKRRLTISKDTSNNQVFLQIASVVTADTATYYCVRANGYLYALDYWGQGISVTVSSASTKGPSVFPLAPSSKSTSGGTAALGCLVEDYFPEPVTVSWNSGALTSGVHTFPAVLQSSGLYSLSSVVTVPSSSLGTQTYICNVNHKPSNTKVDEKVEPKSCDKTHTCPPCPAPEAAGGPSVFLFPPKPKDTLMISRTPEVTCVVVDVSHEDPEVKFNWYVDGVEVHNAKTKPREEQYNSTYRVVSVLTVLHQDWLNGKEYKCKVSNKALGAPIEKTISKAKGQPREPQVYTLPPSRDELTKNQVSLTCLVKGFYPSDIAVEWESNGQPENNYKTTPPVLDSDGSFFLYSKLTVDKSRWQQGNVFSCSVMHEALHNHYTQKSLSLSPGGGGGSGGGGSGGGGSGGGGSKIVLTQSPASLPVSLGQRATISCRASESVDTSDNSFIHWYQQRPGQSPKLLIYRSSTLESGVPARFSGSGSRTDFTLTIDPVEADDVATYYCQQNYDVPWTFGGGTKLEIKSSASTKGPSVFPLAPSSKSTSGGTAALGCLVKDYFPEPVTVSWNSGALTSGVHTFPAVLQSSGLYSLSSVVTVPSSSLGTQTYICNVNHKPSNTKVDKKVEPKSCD
light 1: QIVLTQSPAIMSASPGQKVTITCSASSSVNYTQWYQQKLGSSPKLWIYDAFKLAPGVPARFSGSGTGTSYSLTISSMEAEDAASYFCHQWSSYPWTFGGGTKLEIKRTVAAPSVFIFPPSDRKLKSGTASVVCLLNNFYPREAKVQWKVDNALQSGNSQESVTEQDSKDSTYSLSSTLTLSKADYEKHKVYACEVTHQGLSSPVTKSFNRGEC
light 2: EVILVESGGGLVKPGGSLKLSCAASGFSFSSYTMSWVRQTPEKRLDWVATISGGGRDIYYPDSVKGRFTISRDNAKNTLYLEMSSLMSEDTALYYCVLLTGRVYFALDSWGQGTSVTVSSASVAAPSVFIFPPSDEQLKSGTASVVCLLNNFYPREAKVQWKVDNALQSGNSQESVTEQDSKDSTYSLSSTLTLSKADYEKHKVYACEVTHQGLSSPVTKSFNRGEC
notes: Tetravalent 2+2 CrossMAb VH-VL with charged substitutions in the CH1/CL interfaces; also called PD1TIM3-0359 (2 + 2)

EC50 [4]: 0.08 nM
EC50 [1]: 0.19 nM
Kd (human Tim3-ECD [6]): 2.2 nM
B9: 2 + 2 PD1TIM3_0358: chimeric PD1-0103/Tim3-0028 (bispecific antibody, human IgG1, kappa, L234A L235A)
heavy: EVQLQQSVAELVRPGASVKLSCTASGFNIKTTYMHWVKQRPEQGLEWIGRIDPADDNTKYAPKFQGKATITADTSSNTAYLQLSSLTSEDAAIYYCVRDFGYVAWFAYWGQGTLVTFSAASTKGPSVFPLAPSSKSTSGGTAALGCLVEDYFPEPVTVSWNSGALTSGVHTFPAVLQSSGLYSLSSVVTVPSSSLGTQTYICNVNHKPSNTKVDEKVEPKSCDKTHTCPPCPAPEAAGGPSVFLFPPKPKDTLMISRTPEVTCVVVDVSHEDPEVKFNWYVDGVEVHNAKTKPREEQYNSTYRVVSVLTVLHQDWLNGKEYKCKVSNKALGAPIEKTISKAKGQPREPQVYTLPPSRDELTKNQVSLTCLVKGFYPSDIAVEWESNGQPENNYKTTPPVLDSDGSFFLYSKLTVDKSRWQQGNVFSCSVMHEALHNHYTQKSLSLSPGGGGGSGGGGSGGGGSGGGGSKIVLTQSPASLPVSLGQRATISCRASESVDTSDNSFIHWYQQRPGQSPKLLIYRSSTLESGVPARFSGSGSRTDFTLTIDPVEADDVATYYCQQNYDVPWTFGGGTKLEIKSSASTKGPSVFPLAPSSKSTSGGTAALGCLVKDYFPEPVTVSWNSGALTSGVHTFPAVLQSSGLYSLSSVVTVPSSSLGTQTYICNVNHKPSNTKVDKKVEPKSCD
light 1: NIVMTPTPKFLPVSSGDRVTMTCRASQSVDNYVAWYQQKPGQSPKLLIYYASNRYIGVPDRFTGSGSGTDFTFTISSVQVEDLAVYFCQQHYSSPYTFGSGTKLEIKRTVAAPSVFIFPPSDRKLKSGTASVVCLLNNFYPREAKVQWKVDNALQSGNSQESVTEQDSKDSTYSLSSTLTLSKADYEKHKVYACEVTHQG
light 2: B8 light 2
notes: Tetravalent 2+2 CrossMAb VH-VL with charged substitutions in the CH1/CL interfaces; also called PD1TIM3-0358 (2 + 2)

binding result [2]: no binding
B10: Chimeric TIM3-0028 (antibody, V domains shown)
VH: EVQLQQSVAELVRPGASVKLSCTASGFNIKTTYMHWVKQRPEQGLEWIGRIDPADDNTKYAPKFQGKATITADTSSNTAYLQLSSLTSEDAAIYYCVRDFGYVAWFAYWGQGTLVTFSA
VL: NIVMTPTPKFLPVSSGDRVTMTCRASQSVDNYVAWYQQKPGQSPKLLIYYASNRYIGVPDRFTGSGSGTDFTFTISSVQVEDLAVYFCQQHYSSPYTFGSGTKLEIK
notes: as for B6
